The values that follow come from US20020151680A1 (VEGENICS, published 2002).

Common to all, as to experiment: 35S IP, receptor-Fc
The target of one test is T1, VEGFR-2-Fc (UniProt P35968 24-326).
T1 construct: domain: first 3 Ig domains; used as conditioned supernatant of 293T cells; also called VEGFR-2-Fc fusion protein; not shown: Fc fragment of the pIg vector
As for the experimental part:
(§1) The binding assay procedure was identical to the immunoprecipitation using pentahistidine antibody described in Example 2, apart from the composition of the immunoprecipitation (IP) mixes. The IP mixes used for the receptor binding analysis were as follows: For VEGFR- 1 binding assays, the IP mix was phosphate buffered saline (PBS) containing 1.5% BSA, 0.06% Tween 20, 3 μg/ml heparin and 400 ng/ml VEGFR-1 -Fc fusion protein (100 μl of this IP mix was added to 200 μl of sample supernatant); for VEGFR-2 binding assays, the IP mix was 82% conditioned cell supernatant from 293T cells transiently expressing VEGFR-2-Fc fusion protein in mixture with 18% of a PBS solution that contained 5% BSA, 0.2% Tween 20, and 10 μg/ml heparin (250 μl of IP mix was added to 200 μl of sample supernatant); and for VEGFR-3 binding assays, the IP mix was 82% conditioned cell supernatant from 293T cells transiently expressing VEGFR-3-Fc fusion protein, 18% of PBS containing 5% BSA, 0.2% Tween 20, and 10 μg/ml heparin (250 μl of IP mix was added to 200 μl of sample supernatant).

A further test addresses T2, VEGFR-1-Fc (UniProt P17948 27-331).
T2 construct: domain: first three Ig domains; expressed in Drosophila S2 cells, purified on Protein A sepharose; also called VEGFR-1-Fc fusion protein; not shown: Fc fragment from the Signal-pIgPlus vector
As for the experimental part:
as §1

For the next test, the target named is T3, VEGFR-3-Fc (UniProt P35916 25-329).
T3 construct: domain: first three Ig domains; used as conditioned supernatant of 293T cells; also called VEGFR-3-Fc fusion protein; not shown: Fc fragment of the pIg vector
T3 sequence (looked up): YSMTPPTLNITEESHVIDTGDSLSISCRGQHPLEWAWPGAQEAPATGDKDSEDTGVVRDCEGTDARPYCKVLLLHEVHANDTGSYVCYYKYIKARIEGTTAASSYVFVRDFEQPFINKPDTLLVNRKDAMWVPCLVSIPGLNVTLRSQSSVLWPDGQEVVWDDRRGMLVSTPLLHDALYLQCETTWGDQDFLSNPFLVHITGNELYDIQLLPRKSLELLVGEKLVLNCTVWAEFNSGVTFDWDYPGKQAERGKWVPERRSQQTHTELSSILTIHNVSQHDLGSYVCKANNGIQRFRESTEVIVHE
As for the experimental part: as §1

T2 sequence (P17948 27-331): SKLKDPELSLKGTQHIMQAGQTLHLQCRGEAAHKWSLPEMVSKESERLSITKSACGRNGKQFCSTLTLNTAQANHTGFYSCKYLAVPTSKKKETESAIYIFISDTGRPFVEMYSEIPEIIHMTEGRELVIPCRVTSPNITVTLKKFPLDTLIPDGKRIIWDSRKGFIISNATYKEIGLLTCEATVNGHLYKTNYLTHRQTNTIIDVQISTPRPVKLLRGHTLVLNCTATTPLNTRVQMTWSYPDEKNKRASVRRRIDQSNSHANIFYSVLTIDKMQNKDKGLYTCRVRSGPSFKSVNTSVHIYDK
T1 sequence (P35968 24-326): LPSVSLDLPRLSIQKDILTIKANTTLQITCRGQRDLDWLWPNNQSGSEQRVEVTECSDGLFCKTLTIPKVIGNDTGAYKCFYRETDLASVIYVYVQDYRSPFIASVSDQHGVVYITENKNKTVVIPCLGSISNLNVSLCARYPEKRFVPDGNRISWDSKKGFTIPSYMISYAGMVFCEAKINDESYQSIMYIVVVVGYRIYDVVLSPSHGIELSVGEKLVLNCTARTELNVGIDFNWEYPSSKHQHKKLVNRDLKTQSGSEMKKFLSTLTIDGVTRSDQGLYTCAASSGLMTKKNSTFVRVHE

B1: 12-16 (ligand)
chain: GQNHHEVVKFMDVYQRSYCHPIETLVDIFQEFGVATNTFFKPPCVSVYRCGLLQ
Take B1: the binding result with VEGFR-2-Fc and in the test with VEGFR-1-Fc was “no binding” each time.

B2: 31-1 (ligand)
chain: GQNHHEVVKSIDNEWRKTQCMPIETLVDIFQEYPDEIEYIFKPSCVPLMRCGGCCNDEGLECVPTEESNITMQIMRIKPHQGQHIGEMSFLQHNKCECRPKKDLVFEQKLISEEDLNSAVDHHHHHH
Turning to B2, the binding result with VEGFR-2-Fc, with VEGFR-3-Fc and with VEGFR-1-Fc was “no binding” throughout.

B3: 31-6 (ligand)
chain: GQNHHEVVKSIDNEWRKTQCMPIETLVDIFQEYPDEIEYIFKPSCVPLMRCGGCCNDEGLECMNTSTSYLSKTLFEIKPHQGQHIGEMSFANHTSCRCMSKLDLVFEQKLISEEDLNSAVDHHHHHH
Turning to B3, the binding result with VEGFR-2-Fc, with VEGFR-3-Fc and with VEGFR-1-Fc was “no binding” in each case.

B4: 31-11 (ligand)
chain: GQNHHEVVKSIDNEWRKTQCMPIETLVDIFQEYPDEIEYIFKPSCVPLMRCGGCCNSEGLQCVPTEESNITMQIMRITVPLSQGPKPVTISFLQHNKCECRPKKDLVFEQKLISEEDLNSAVDHHHHHH
Take B4: the binding result with VEGFR-2-Fc, with VEGFR-3-Fc and with VEGFR-1-Fc was “no binding” in each case.
